The chains are these.
B1: LINE1-full (parent)
chain: UACGUAGGUGGUUUUCCCCUGAUAGUGCUAAGGGGGCCUGGAAGUUUGGACUGGGCAGAGCUCAACACAGCGUGGCAAAGUGGCUGUGGCUAGACUGCCUCUCUGGAUUCCUCGUCACUCAGCAGGGCAUCUCUGAGAGAAAUGCC

This data set covers variants of B1. Kind of data set: self-cleavage, relative activity (ratio to wild type); higher = more cleavage; in vitro, sequencing; the parent is a self-cleaving ribozyme.
Consider UACGUAGGUGGUUGUCCCCUGAUAGUGCUAAGGGGGCCUGGAAGUUCGGACUGGGCAGAGCUCAACACAGCGUGGCAAAGUGGCUGUGGCUAGACUGCCUCUCUGGAUUCCUCGUCACUCAGCAGGGCAUCUCUGAGAGAAAUGCC, for which the self-cleavage turned out to be 1.02.
For UACGUAGGUGGUUGUCCCCUGAUAGUGCUAAGGGGGCCUGGAAGUUUGGACUGGGCAGAGCUCAAUACAGCGUGGCAAAGUGGCUGUGGCUAGACUGCCUCUCUGGAUUCCUCGUCACUCAGCAGGGCAUCUCUGAGAGAAAUGCC the value was 0.06; for UACGUAGGUGGUUGUCCCCUGAUAGUGCUAAGGGGGCCUGGAAGUUUGGACUGGGCGGAGCUCAACACAGCGUGGCAAAGUGGCUGUGGCUAGACUGCCUCUCUGGAUUCCUCGUCACUCAGCAGGGCAUCUCUGAGAGAAAUGCC, 2.19; for UACGUAGGUGGUUGUCCCCUGAUAGUGCUAAGGGGUCCUGGAAGUUUGGACUGGGCAGAGCUCAACACAGCGUGGCAAAGUGGCUGUGGCUAGACUGCCUCUCUGGAUUCCUCGUCACUCAGCAGGGCAUCUCUGAGAGAAAUGCC, 1.51.
For UACGUAGGUGGUUCUCCCCUGAUAGUGCUAAGGGGGCCUGGAAGUUUGGACUGGGCAGAGCUCAACACAGCGUGGCAAAGUGGCUGUGGCUAGACUGCCUCUCUGGAUUCCUCGUCACUCAGCAGGGCAUCUCGGAGAGAAAUGCC, the self-cleavage was 1.23.
For UACGUAGGUGGUUGUCCCCUGAUAGUGCUAAGGGGGCGUGGAAGUUUGGACUGGGCAGAGCUCAACACAGCGUGGCAAAGUGGCUGUGGCUAGACUGCCUCUCUGGAUUCCUCGUCACUCAGCAGGGCAUCUCUGAGAGAAAUGCC the value was 1.12; for UACGUAGGUGGUUGUCCCCUGAUAGUGCUAAGGGGGCCUGGAAGUUUGGACUGGGCAGAGCUCAACACAGCGUGGCAAAGUGGCUGUGGCUAGACUGCCUCUCUGGAUUCCUCGUCAUUCAGCAGGGCAUCUCUGAGAGAAAUGCC, 1.84.
For UACGUAGGUGGUUGUCCCCUGAUAGUGCUAAGGGGGCCUGGAAGUUUGGACUGGGCAGAGCUCAACACAGCGUGGCAAAGUGGCCGUGGCUAGACUGCCUCUCUGGAUUCCUCGUCACUCAGCAGGGCAUCUCUGAGAGAAAUGCC the value was 0.92; for UACGUAGGUGGUUGUCCACUGAUAGUGCUAAGGGGGCCUGGAAGUUUGGACUGGGCAGAGCUCAACACAGCGUGGCAAAGUGGCUGUGGCUAGACUGCCUCUCUGGAUUCCUCGUCACUCAGCAGGGCAUCUCUGAGAGAAAUGCC, 1.09; for UACGUAGGUGGUUGUCCCCUGAUAGUGCUAAGGGGGCCUGGAAGUUUGGACUGGGCAGAGCUCAACACAGCGUGGCAAAGUGGCUGUGGCUAGACUGCCUCUCUGGGUUCCUCGUCACUCAGCAGGGCAUCUCUGAGAGAAAUGCC, 1.28.
With UACGUAGGUGGUUGUCCCCUGAUAGUGCUAAGGGGGCCUGGUAGUUUGGACUGGGCAGAGCUCAACACAGCGUGGCAAAGUGGCUGUGGCUAGACUGCCUCUCUGGAUUCCUCGUCACUCAGCAGGGCAUCUCUGAGAGAAAUGCC, the self-cleavage is 0.76.
Regarding UACGUAGGUGGUUGUCCCCUGAUAGUGCUAAGGGGGCCUGGGAGUUUGGACUGGGCAGAGCUCAACACAGCGUGGCAAAGUGGCUGUGGCUAGACUGCCUCUCUGGAUUCCUCGUCACUCAGCAGGGCAUCUCUGAGAGAAAUGCC, the self-cleavage worked out at 1.15.
For UACGUAGGUGGUUCUCCCCUGAUAGUGCUAAGGGGGCCUGGAAGUUUGGACUGGGCAGAGCUCAACACAGCGUGGCAAAGUGGCUGUGGCUAGACUGCCUCUCUGGAUUCCUCGUCACACAGCAGGGCAUCUCUGAGAGAAAUGCC, the self-cleavage was 1.25.
Regarding UACGUAGGUGGUUGUCCCCUGAUAGUGCUAAGGGGGCCUGGAAGUUUGGACUGGGCAGAGCUCAACACAGCGUGGCAAAGUGGCUGUGGCUAGACUGCCUCUCUGGAUUCCUCGUCACUCAGCAGGGCAUCUCUGGGAGAAAUGCC, the self-cleavage came out at 1.16.
To UACGUAGGUGGUUGUCCCCUGAUAGUGCUAAGGGGGCCUGGAAGUUUGGACUGGGCAGAGCUCAACACAGCGUGGCGAAGUGGCUGUGGCUAGACUGCCUCUCUGGAUUCCUCGUCACUCAGCAGGGCAUCUCUGAGAGAAAUGCC belongs 0.57.
To UACGUAGGUGGUUCUCCCCUGAUAGUGCUAAGGGGGCCUGGAAGUUUGGACUGGGCAGAGCUCAACACAGCGUGGCAAAGUGGCUGUGGCUAGACUGCCUCUCUGGAUUCCCCGUCACUCAGCAGGGCAUCUCUGAGAGAAAUGCC belongs 1.19.
For UACGUAGGUGGUUCUCCCCUGAUAGUGCUAAGGGGGCCUGGAAGUUUGGACUGGGCAGAGCUCAACACAGCGUGGCAAAGUGGCUGUGGCUAGACUGCCUCUCUGGAUUCCUCGCCACUCAGCAGGGCAUCUCUGAGAGAAAUGCC the value was 1.31; for UACGUAGGUGGUUGUCCCCUGAUAGUGCUAAGGGGGCCUGGAAGUUUGGACUGGGCAGAGCUCAACACAGCGUGGCAAAGUGGCUGUGGCUAGACUGCCUCUCUGGAUUCCUCGUCACUCAGCAGGGCAUCUCUGAGAGUAAUGCC, 0.64; for UACGUAGGUGGUUGUCCCCUGAUAGUGCUAAGGGGGCCUGGAAGUUUGGACUGGGCAGAGCUCAACACAGCGUGGCAAGGUGGCUGUGGCUAGACUGCCUCUCUGGAUUCCUCGUCACUCAGCAGGGCAUCUCUGAGAGAAAUGCC, 0.42.
Regarding UACGUAGGUGGUUGUCCCCUGAUAGUGCUAAGGGGGCCUGGAAGUUUGGACUGGGCAGAGCUCAACACAGCGUGGCAAAGUGGCUGUGGCUAGACUGCCUCUCUGGAUUCCUCGUCACUCAGCAGGGCAUCUCUGAGAGAAAUGCC, the self-cleavage was found to be 0.82.
